# Patent US20190375786A1, “STABLE PEPTIDES AND METHODS OF USE THEREOF” (Fred Hutchinson Cancer Research Center, priority 2016, published 2019)
# No end group written: not given here.
# B1: HuScn: Human siderocalin, reference protein in the SYPRO Orange melting assay (protein, UniProt P80188 21-198, looked up)
# Neutrophil …: QDSTSDLIPAPPLSKVPLQQNFQDNQFQGKWYVVGLAGNAILREDKDPQKMYATIYELKEDKSYNVTSVLFRKKKCDYWIRTFVPGCQPGEFTLGNIKSYPGLTSYLVRVVSTNYNQHAMVFFKKVSQNREYFKITLYGRTKELTSELKENFIRFSKSLGLPENHIVFPVPIDQCIDG
# Tests used:
# [1] = Combined resistance grouping of hitchin peptides (FIG. 27, from Table 2 data); type: physicochemical; details: FIG. 27 grouping of hitchin peptides
# Method: As shown by the data in TABLE 2, the tested peptides of the present disclosure show a range of resistance to proteases, reduction, and high temperature. The peptides were classified as high, medium, or low for each condition. […] For example, after a peptide is treated at 100° C., if the HPLC peak of the peptide is mostly absent as compared to HPLC peak of the peptide not treated at 100° C., then the peptide is classified as low or having low resistance to 100° C. After a peptide is treated with reducing conditions, if there is no or very minimal HPLC peak that overlaps with the HPLC peak of the peptide not treated with reducing conditions, then the peptide is classified as low or having low resistance to reducing conditions.
# The peptides with the highest resistance data were further analyzed. […] The six peptides that were further tested were peptides comprising the sequences of SEQ ID NO: 27, SEQ ID NO: 24, SEQ ID NO: 6, SEQ ID NO: 10, SEQ ID NO: 12, and SEQ ID NO: 57, which were all hitchins. […] FIG. 27C is a sequence analysis of SEQ ID NO: 27, SEQ ID NO: 24, SEQ ID NO: 6, SEQ ID NO: 10, SEQ ID NO: 12, and SEQ ID NO: 57 from FIG. 27B. FIG. 27C identifies which amino acids are present at each position in SEQ ID NO: 27, SEQ ID NO: 24, SEQ ID NO: 6, SEQ ID NO: 10, SEQ ID NO: 12, and SEQ ID NO: 57. For example, at position one, all peptide sequences comprise a G amino acid residue; at position two, all peptide sequences comprise an S amino acid residue; at position three, all peptide sequences comprise either G, Q, or V amino acid, or null; and at position four, all peptide sequences comprise V, R, or K amino acid, or null. […] SEQ ID NO: 167 and SEQ ID NO: 168 describe sequences of peptides that are particularly resistant to reduction, pepsin, 75° C., and 100° C., which would typically degrade peptides. […] Additionally, SEQ ID NO: 169 describes sequences of peptides that are also particularly resistant to trypsin.
# [2] = Resistance to elevated temperature, HPLC; type: physicochemical; details: HPLC
# Summary of the method: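 Peptides were incubated at room temperature, 70° C or 100° C for one hour in ddH2O; another protocol used 70° C, 75° C or 100° C for one hour in 0.5 mM PBS, then pelleting and analysis of the supernatant. Remaining peptide was measured by C-18 RP-HPLC, 5–45% acetonitrile/0.1% TFA over 10 min.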
# [3] = Intravenous and oral administration of 14C-radiolabeled peptide to mice; plasma, urine, feces by liquid scintillation counting and HPLC; type: in vivo, female Harlan athymic nude mice; details: mouse
# Method: This example describes oral and intravenous administration of peptides of this disclosure. […] A peptide of SEQ ID NO: 27 was radiolabeled by the methods described in EXAMPLE 4, and was then administered intravenously or orally to female Harlan athymic nude mice, 6-8 weeks of age. Radiolabeled peptides of SEQ ID NO: 27 (SEQ ID NO: 27-r) was administered intravenously (IV) at a dose of 4.8 μCi/20 nmol. SEQ ID NO: 27-r was administered orally (PO) by oral gavage at a dose of 24 μCi/100 nmol. Mice were euthanized at various time points by CO2 asphyxiation and biological fluids were collected, including blood, urine, and feces. Samples were analyzed by RP-HPLC and liquid scintillation counting to quantify the concentration or dose of radioactivity and/or intact peptide recovered in plasma, urine, and feces. Urine was collected by abdominal palpitation immediately before CO2 asphyxiation. Blood was collected by cardiac puncture immediately after CO2 asphyxiation and centrifuged to separate plasma. Feces were collected either before or after CO2 asphyxiation by palpitation of the colon. Samples were analyzed by HPLC to quantify the concentration or dose of intact peptide recovered in plasma, urine, and feces. For HPLC analysis, urine samples were first diluted at a 1:20 ratio in water and plasma samples were diluted at a 1:5 ratio in water. Feces samples were dissolved in Tris buffer, centrifuged to remove the insoluble fraction, and supernatants were diluted at a 1:1 ratio in water.
# [4] = Resistance to reduction by DTT, RP-HPLC; type: physicochemical; details: 10 mM DTT; HPLC vs non-reduced peptide
# Summary of the method: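 Peptide (12.5 μg from a 2 mg/ml stock, or 0.015 mM final in PBS) was held 30 min at room temperature with or without 10 mM DTT. Reduced and non-reduced forms were compared by C-18 RP-HPLC using a 5–45% acetonitrile/0.1% TFA gradient over 10 min, with detection at 214 and 280 nm.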
# [5] = Resistance to reduction by reduced glutathione (GSH), HPLC; type: physicochemical; details: 10 mM reduced glutathione (GSH); HPLC vs non-reduced peptide
# Method: This example describes stability of designed or engineered peptides under reducing conditions. Peptides that are designed or engineered to interact with one or more target proteins in the cell, such as proteins in the nucleus, are exposed to reducing conditions in the cytosolic compartment of cells. Thus, it is advantageous for peptides of this disclosure to display stability in reducing conditions. Stability of peptides of this disclosure was tested in 10 mM DTT and 10 mM GSH. GSH is a more physiologically relevant reducing agent for testing peptide stability in intracellular conditions. An example of a peptide-target protein interaction is a peptide binding to a TEAD protein.
# [6] = SYPRO Orange melting assay; type: physicochemical; details: heating from 20° C. to 95° C.
# Method: Protein secondary structures were assessed using Circular Dichrosim (CD). CD spectra were measured with a Jasco J-720W spectropolarimeter using a 1.0 mm path length cell. Protein samples in 10 mM phosphate buffer (pH=7.4) were at 25-30 μM protein concentration. Samples were analyzed at wavelength ranges of […]. Data were expressed in terms of relative ellipticity [θ]; (mdeg). To determine thermal stability of proteins, samples were subjected to incremental increase in temperature at a ramp of 2° C./min from 20° C. to 95° C. Stability and protein unfolding were monitored at 220 and 215 for α-helix and β-sheet secondary structures, respectively. Data are expressed in terms of relative ellipticity [θ], reported in mdeg. For SEQ ID NO: 43 and its point mutant variants, no changes to the α-helix-dominated structure were observed upon heating up to 95° C. […] Additionally, protein melting temperature (Tm) determination was performed by monitoring protein unfolding using SYPRO Orange dye (Molecular Probes). In brief, 0.1 mg/mL protein sample in 20 μL total volume PBS buffer were mixed with 24, of 10× SYPRO Orange dye. Dye intercalation into the hydrophobic protein core following protein unfolding was assayed using the C1000 Touch Thermal Cycler with CFX96 Deep Well Real-Time System (BioRad). Samples were heated from 20° C. to 95° C. with stepwise increments of 0.5° C. per minute and a 5 sec hold step for every point, followed by fluorescence reading. Tm were calculated by analyzing the derivatives of Relative florescence Units (RFU). FIG. 17D illustrates this SYPRO Orange melting assay of Peptides.
molecule,measurement,setting,value
GSQVSTNKKCSNTSQCYKTCEKVVGVAAGKCMNGKCICYP [SEQ ID NO: 18],"combined resistance to reduction, pepsin and elevated temperatures such as 75° C. and 100° C.",[1],not highly resistant
GSGVPTDVKCRGSPQCIQPCKDAGMRFGKCMNGKCHCTPK [SEQ ID NO: 56],"combined resistance to reduction, pepsin and elevated temperatures such as 75° C. and 100° C.",[1],not highly resistant
GSISIGIKCSPSIDLCEGQCRIRKYFTGYCSGDTCHCSG [SEQ ID NO: 3],"combined resistance to reduction, pepsin and elevated temperatures such as 75° C. and 100° C.",[1],not highly resistant
same,resistance to incubation at 70° C. (in words),[2]; 70° C. for 1 hour,resistant
same,resistance to incubation at 100° C. (in words),[2]; 100° C. for 1 hour,various degrees of degradation
"SEQ ID NO: 27-r: radiolabeled peptide of SEQ ID NO: 27, by reductive methylation with 14C formaldehyde (GSGVPINVKCRGSRDCLDPCKKAGMRFGKCINSKCHCTP; cysteine pairing not given here; also: radiolabeled by reductive methylation with 14C formaldehyde (sites not given here))",radioactivity in urine,[3]; IV 20 nmol and PO 100 nmol,some radioactivity from the administered peptide was detected
same,time up to which radioactive signal from the dosed peptide was present in plasma,[3]; IV 20 nmol and PO 100 nmol,at least 50 hours
same,plasma radioactivity as percent of the administered dose,"[3]; IV, 20 nmol (4.8 μCi 14C)",~10%
same,nature of radioactively detected peptide in plasma (intact vs fragments),"[3]; PO 100 nmol, tandem HPLC and liquid scintillation counting",nearly all of the radioactively detected peptide in plasma was due to fragments
same,intact peptide in feces,"[3]; PO 100 nmol, tandem HPLC and liquid scintillation counting, 3 and 8 hours",detected
same,plasma radioactivity as percent of the administered dose,"[3]; PO by gavage, 100 nmol (24 μCi 14C)",~1%
GSNFKVEGACSKPCRKYCIDKGARNGKCINGRCHCYY [SEQ ID NO: 5],"combined resistance to reduction, pepsin and elevated temperatures such as 75° C. and 100° C.",[1],not highly resistant
same,resistance to reduction by DTT (in words),[4],resistant
GSVRIPVSCKHSGQCLKPCKDAGMRFGKCMNGKCDCTPK [SEQ ID NO: 24],"combined resistance to reduction, pepsin and elevated temperatures such as 75° C. and 100° C.",[1],highly resistant
PDEYIERAKECCKKGDIQCCLRYFEESGDPNVMLICLFCP [SEQ ID NO: 122],resistance to GSH reducing conditions,[5],resistant
B1,melting temperature (Tm),[6],79 °C
